Key:
F-actin = F-actin (UniProt P68135); assay: co-sedimentation
gel electrophoresis = biological target: the molecule itself; assay: gel electrophoresis
CFP-SERCA1a = CFP-SERCA1a (UniProt O14983-2 1-994); assay: FRET or BRET

Q: How did the Kd (F-actin) turn out when “first four N-terminal domains (C0-C1-motif-C2) of cardiac myosin binding protein C (domain or fragment)” was run?
A: 10 µM

Q: And the stoichiometry N (F-actin)?
A: 1 molar ratio

B1: WT phospholamban (in vitro sample) (natural protein)
chain: MEKVQYLTRSAIRRASTIEMPQQARQKLQNLFINFCLILICLLLICIIVMLL
Q: For B1, which “stoichiometry N” value (gel electrophoresis) is on record?
A: 5

B2: YFP-PLB (natural protein)
chain: MEKVQYLTRSAIRRASTIEMPQQARQKLQNLFINFCLILICLLLICIIVMLL
Q: For B2, which “fold higher apparent affinity relative to SERCA2a” value (CFP-SERCA1a) is on record?
A: 2.6 fold

Reference: PMC2712976 (The Journal of General Physiology, 2009)
